According to the nanobody polyreactivity screen of Harvey et al. (2022):

Assay: yeast display, Sf9 membrane polyspecificity reagent, FACS + sequencing; frameworks hold sequencing errors
Outline: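 Sorting gates, low and high (top ~1%), were placed on anti-HA fluorescence to track expression and on streptavidin fluorescence to track reagent binding. A clone's polyreactivity label is taken from the gate it came out of. The reagent was 10% biotinylated, detergent-solubilized Sf9 membrane, applied for 1 hour at 4 °C to galactose-induced yeast display cells.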

Sequence	polyreactivity (PSR sort gate)
QVQLVESGGGLVQPGGSLRLSCAASGLTFPWYAMGWYRQAPGQERELVAAITNSDGNTFADSVKGRFTISRDNAKNSVYLQMNSLKAEDTAVYSCATDTRSLAYYYWGQGTQVTVSS	low polyreactivity
QVQLVESGGGLVQAGGSLRLSCAACGRTFQWYPMGGFRQAPGTERELVAAISWSGTSTYYADSVKGRFTISRDNAKHTVYLQMNSLKPEDTAVYYCNKPCDVWDHDYDYWGQGTQVTVST	low polyreactivity
QVQLVESGGGLVQAGGSLRLSCAASGSTFTWYAMGWSRQAPGKERELVADISYGGGSTYYADSVKGRFTISRDNAKNTVYLQMNSLKPEDTAVYYCAAESIPYYRYDYWGQGTQVTVSS	low polyreactivity
QFQLVESGGGLVQAGGSLRLSCAASGFTFWYYAMGWYRQAPGKERELVARITSRGADTYADSVKGRFTISRDNAKNTVYLQMNSLKPEDTAVYYCAVDPGFSWYEQYDYWGQGTQVTVST	low polyreactivity
QVQLQESGAGLVQAGGSLRLICAASGNIFRGDYVGWYHQAPGKEREFVASITGGGNTNFADSVKGRYSISRDNAKKTVYLKMNSLKPEDTAVYYCAVFDAWLARLIFWGQGSQVTVSS	high polyreactivity
QVQLVESGGGLVQAGGSLRLSCAASGITFTAYAMGWYRQAPGKEREFVAVITRSGGSTYYADSVKGRFTISRDNAKNTVYLQMNSLKPEDTAVYYCAAETSYRYGWYYYWGQGTQVTVSS	high polyreactivity
QVQLVESGGGLVQAGGSLRLSCAASGNTFYLYAMGWYRQAPGKERELVASITGGTRTNYADSVKGRFTISRDNAKNTVYLQMNSLKPEDTAVYYCAKTYPRTVGKYLSRGGYYYWGQGTQVTVSS	high polyreactivity
QVQLVESGGGLVQAGGSLRLSCAASGSTFFLYAMGWYRQAPGKERELVAAINYIGGTYYADSVKGRFTISRDNAKNTVYLQMNSLKPEDTAVYYCAASYVGTIAGMDYWGQGTQVTVSS	low polyreactivity
QVQLVESGGGLVQAGGSLRLSCAASGRIFSIYGMGWYRQAPGKERELVAVISGSVGITYYADSVKGRFTISRDNAKHTVYLQMNSLKPEDTAVYYCNAKVRRRKYDYWGQGTQVTVSS	high polyreactivity
QVQLVESGGGVVQAGGSLRLSCAASGRTSGSYAMGWYRQAPGNERELVAVITTSDGSTYYADSVKGRFTISRDNAKNTVYLQMNSLKPEDTAVYYCNVDYPNLWYDSYYYWGQGTQVTVSS	low polyreactivity
QVQHVESGGGLVQAGGSLRLRCAASGTTFSSNAMGWSRHAPGKERELVASITRGGSTSADSVKGRFTISRDNAKNTVYLQMNSLKPEDTAVYYCAKSVTGWRGLWYTPRNYYWGQGTQVTVSS	high polyreactivity
QVQLVDSGGGLVQAGGSLRLSCAASGRTFYPYVMGWYRQPPGKERELVADISWSGGRTYYADSVKGRFTISRDNAKNTVYLQMNSLKPEDTAVYYCAAGYRRRYNYWGQGTQVTVSS	high polyreactivity
QVQLVESGGGLVQAGGSLRLSCAASGSTFYPYAMGWYRQAPGKERELVASISSRGGTTYYADSVKGRFTISRDNAKNTVYLQMNSLKPEDTAVYYCAARLTYAERKWPTKYYWGQGTQVTVSS	high polyreactivity
QVQLVESGGGLVQAGGSLRLSCAASGSIFHTYVMGWYRQAPGKERELVASITRSGGSTYYADSVKGRFTISRDNAKKTVYLQMNSLKPEDTAVYYCAATYRTANHRYYYWGQGTQVTVSS	high polyreactivity
QVQLVESGGGLVQAGGSLRLSCAASGRTFRSNVMRWYRQAPGKERELVASITWSGGTTYYADSVKGRFTISRDNAKNTVYLQMNSLKPEDTAVYYCNAADERSQGWVGYDHWGQCTQVTVSS	low polyreactivity
QVQLVESGGGLVQAGGILRLSCAASGRIFGYNAMGWYRQAPGKERELVAAIRQRAGSTNYADSVKGRFTISRDNSKNTVYLQMKSLKPEDTAVYYCAVDGNFFGEVRPYDYWGQGSQVTVSS	low polyreactivity
QVQLVESGGGLVQAGGSLRLSCAASGTIFLVYAMGWYRQAPGKERELVAAITFSGGDTYADSVKGRFTISRDNAKNTVYLQMNSLKPEDTAVYYCNAPWPFYGSVVGQDFDYWGQGTQVTVSS	low polyreactivity
QVQLVDSGGGLVQAGGSLPLSCAASGRIIAHYALGWYRQAPGKERELVAAIRRSGVSTYYADSVKGRFTISRDNANNTVYLQMHSLKPEDTAVYYCNARAYVSPYDYWGHGTQVTVSS	low polyreactivity
QVKLVESGGGLVQAGGSLRLSCAASGFIFIDNTMGWYRQEPGKERELVAGINTSGASTHYADSVKGRFTISRDYAKNTVYLQMNSLKPEDTAVYYCNRGDLPKADYNDYSYDYDYRGQGTQVTVSS	low polyreactivity
QVQLVESGGGLVQAGGSLRLSCAASGRTFYVYAMGWYRQAPGKERELVAAISQDDGGTYYADSVKGRFTISRDNAKNTVYLQMNSLKPEDTAVYYCAAKEWRYGYDYGYWGQGTQVTLSS	low polyreactivity
KVQLVESGGGLVQAGGSLRLSCAASGGTFSYNAMGWYRQAPGKERELVAAISWSGTRTYYADSVKGRFTISRDNAKNTVYLQMNSLKPEDTAVYYCNKPPPNRGRYDYWGQCTQVTVSS	low polyreactivity
QVQLVESGGGLVQAGGSLRLSCAASGSTFRVYAMGWYRQAPGKEREFVAAITGSDGSTYYADSVKGRFTISRDNAKNTVYLQMNSLKPEDTAVYYCAADYYLQNYETGYGYWGQGTQVTVSS	low polyreactivity

Sequence	polyreactivity (PSR sort gate)
QVQLVESGGGLVQAGGSLRLSCAASGYIFGVNALGWYRQAPGKERELVAAIDSGSRTYYADSVKGRFTISRDNAKNTVYLQMNSLKPEDTAVYYFATTFYVSYGGGYYTIWYDYWGQGTQVTVSS	low polyreactivity
QVQLVESGGGLVQAGGSLRLICAASGFTFYLYTMGWYRQAPGKERELVAAISWRGGGTYYADSVKGRFTISRDNAKNTVYLQMNSLKPEDTEVYYCAAYWRRRLVYYYWGQGTQVTVSS	high polyreactivity
QVQLVESGGGLVQAGGSLRLSCAASASIYAHYEMGWYRQAPGKERELVAAITASGGTTYYADSVKGRFTISRDNAKNTVYLQMNSLKPEDTAVYYCNAGKRTFLYDRDDYWGQGTQVTVSS	high polyreactivity
QVQLVESGGGLVQALGSLRLSCAASGTTFNSNVMGWYRPAPGKERELVAGNNTTYYADSVKGRFTISRDNAKNTVYLQMNSLKPEDTAVYYCNGSEDAPAIEYLAPDGHDGYWGQGTQVTVSS	low polyreactivity
QVQLVESGGGLVQAGGSLRLSCAASGFIFGTYAMGWYRPAPGKERELVAAITSGGSTYYADSVKGRFTISRDNAKNTVYLQMNSLKPEDTAVYYCAKYHWRLSFSRYPYDYWGQGTQVTVSS	high polyreactivity
QVQLVESGGGLVQAGGSLRLSCAASGRTFRYYTMGWYRQAPGKEREFVAAISSTGGTYYADSVKGRFTISRDNAKNTVYLQMNCLIPEDTAVYYCAATFIQVVVNVQLYDYDYWGQGTQVTVSS	low polyreactivity
QVQLVESRGGLVQAGGSLRLSCAASGRTFEYNAMGWYRQAPGKERELVATIRYSGTSTYADSVKGRFTISRDNAKNTVYLQMNSLKPEDTAVYYCAKQVRYYGYKYNYWGQGTQVTVSS	high polyreactivity
QVQLVESGGGLVQAGGSLRLSCAASGRIYYAYTMGWYIQAPGKERELVAAISGSGSTYYADSVKGRFSISRDNAKNTVYLQMNSLKPEDTAVYYCAADVTGGRKYDYWGQGTQVTVSS	low polyreactivity
QVQLVESGGGLVQAGGSLRLSCAASGTTFPAYAMGWYRQAPGKERELVAVINLSGSTYYADSVKGRFTISRDNAKNTVYLQMNSLKPEDTAVYYCNARQYDYYRYGYWGQGTQVTVSS	low polyreactivity
QVQLVESWGGLVQAGGSLRLSCAASGFTLTPYAMGWYRQAPGKERELVAASRWSGGSTYYADSVKGRFTISRDNAKNTVYLQMNSLKPEDTAVYYCAARYAYRPVNGYKYWGQGTQVTVSS	high polyreactivity
QVQLVESGGGLVQAGGSLRLSCAASGYTFSLNAMGWYRQAPGKERELVAAIRGGGSTNYADSVKGRFTISRDNAKKTVYLQMNSLKPEDTAVYYCAASSYNGHVYWGQGTQVTVSS	low polyreactivity
QVQLVESGGCLVQAGGSHRLSCASSGRTFYRKAMGWYRQAPGKERELVAAISSGTSTNYADSVKGRFTISRDYAKNTVYLQMNSLKPEDTAVYYCAKERPRGAPAYYSRFYDYWGQGTQVTVSS	high polyreactivity
QVQLVESGGGFVQAGGSLRLSCAASGRIFRIYAMGWYRQAPGKERELVAAITYRGGSTNYADSVKGRFTISRDNAKNTVYVQINSLKPEDTAVYDCAARSVYYGYTGYSYWGPGTQVTVSS	high polyreactivity
QVQLVESGGGLVQAGGSLRLSCAASGFIYSRYAMGWYRQAPRKEMDFFAAISRNGGSTYYADSVKGRITISRDNAKNTVYLQMNSLKPDDTAVYYCIAPYFVTSTYANTLGFDYWGQGTQVTVSS	high polyreactivity
QVQLVESGGGLVQAGGSLRLTCAASGRTFTIYAMGWYRQAPGKERELVAAISSSSGSTYYADSVKGRFPISRDNAKNTVYLQKNSLKPEDTAVYYCAVKLSGQAAQRRYDYWGQGTQVTVSS	high polyreactivity
QVQLVESGGGLVQAGGSLRLSCADSGRTFTNNAMGWYIQAPGKERELVAAITSGGRTNYADSVKGRFTISRDNAKNTVYLQMNSLKPEDTAVYYCAARIPSDGYYYWGQGTQVTVSS	high polyreactivity
QVQLVESGGGLGQAGGSLRLTCAASGSTFWYYAMGWYRQAPGKERELVAAITSGDSTYYADSVKGRFTISRDNAKKTVYLQMNSLKPEDTAVYYCAADLPWEDGYYFYSGYTEYDYWGQGTQVTVSS	low polyreactivity
QVQLVESGGGLVQAGGSLRLRCAASGRTFKRKAMGWYRQAPGKEREFVAVITGSGGSTYYADSVKGRFTISRDNAKNTVYLQMNSLKPEDTAVYYCAAALGLRSTSWGRRGGGGVYWGQGTQVTVSS	high polyreactivity
QVQLVESVGGLVQAGASLRLSCAPSGSTFPVYAMGWYRPAPGKESELVARISSGSSTNYADSVKGRFTISRDNAKITVYLQMNSLKPEDTAVYYCAAQTPRFVWQKGPLDSEDYWGQGTQVTVSS	high polyreactivity
QVQLVESGGGLVQAGGSLRLSCAASGSIFTRNAMGWYRQAPGKERELVATIRKNGASTTYADSVKGRFTISRDNAKNTVYLQMNSLKPEDTAVYYCARDHHTKYNYWGQGTQVTVSS	low polyreactivity
QVQLVESGGGLVQAGGSLRLSCAASGSIFPWYVMGWYRQAPRKERELVASITYRGASTYYADSVKGRFTISRDNAKNTVYLQMNSLKPEDTAVYYCADFRSYYSERHDYGYWGQGTQVTVSS	low polyreactivity
